Test results reported in the Immune Epitope Database (IEDB).

Columns and labels:
Test in all cases: IEDB peptide-MHC binding, purified MHC/competitive/radioactivity; ≥ and ≤ were set here for values at or beyond the usual limits of such assays
Details in all cases: source organism: Homo sapiens
HLA-A*11:01 = target: HLA-A*11:01
HLA-A*03:01 = target: HLA-A*03:01
HLA-B*07:02 = target: HLA-B*07:02

| IC50 (HLA-A*11:01) [µM] | IC50 (HLA-A*03:01) [µM] | IC50 (HLA-B*07:02) [µM] | Sequence |
| --- | --- | --- | --- |
| 0.0035 | – | – | AVVLASLIYR |
| 0.0313 | – | – | GTQCALTRR |
| – | 0.179 | – | HTMEVTVYHR |
| – | 0.179 | – | LIGCWYCRRR |
| – | – | 0.0172 | LPHSSSHWL |
| 0.0161 | – | – | QTSAGHFPR |
| 0.0046 | 0.0455 | – | SIFEQWLRR |
| 0.0455 | – | – | SSSHWLRLPR |
| 0.0036 | 0.0179 | – | VVLASLIYR |
| 0.0806 | 0.161 | – | VVLASLIYRR |
| 0.0385 | 0.0263 | – | YMVPFIPLYR |
